# PMC6978305, “Formation of S. pombe Erh1 homodimer mediates gametogenic gene silencing and meiosis progression” (Scientific Reports, 2020)
# B1: S. pombe Erh1, wild type, recombinant (natural protein, UniProt G2TRN4 1-104, looked up)
# chain: MSPPPAESHIILLIQQGSDPKTRIWSDHCSLRSAIEYIVGVYQTNQAVSEKESIDVSRFFNFFDEIYDCVPLVYDRHFRAYIPHEKQWLLHHAQEYLTAARQIP
# notes: Erh1, S. pombe, full length, from plasmid pMG921 (pGEX-6P1); After 3C cleavage some residues of the N-terminal tag remain (4 of them are seen in protomer B of the crystal structure); also called wild-type Erh1; apo-Erh1; source: E. coli BL21 (DE3) Codon+, purified (GSH-sepharose, 3C cleavage, Superdex 75); not shown: GST, N-terminal, cleaved
# Target: the molecule itself
# Assay: SEC-MALS; SEC-MALLS of purified recombinant proteins in solution
protein,measurement,value
B1,stoichiometry N,2
